A value given as a limit tells only on which side of the number the result lay.

Usually Kd stands for the constant that tells how readily two partners part at equilibrium.

Test in all cases: AlphaScreen or HTRF; saturation binding on HEK293 cells transfected with SNAP-ghrelin receptor (WT or mutants) labelled with SNAP-Lumi4-Tb; increasing concentrations of ghrelin-A2 in the presence or absence of 10 uM unlabeled ghrelin, 1 h at R.T.; HTRF ratio 665 nm/620 nm; one Kd for each of three experiments
A general note: In Alpha technology, singlet oxygen from a donor bead excites a nearby acceptor bead.

The target in assay [1] is N-terminal-SNAP-tagged ghrelin receptor, wild type (human) (UniProt Q92847).
Assay [2] deals with N-terminal-SNAP-tagged ghrelin receptor Q302A (human) (UniProt Q92847).
Assay [3] addresses N-terminal-SNAP-tagged ghrelin receptor F312A (human) (UniProt Q92847).

“ghrelin-A2 (full-length ghrelin labeled with the dye A2 on an additional cysteine at the C-terminal end) (peptide)”: the Kd in assay [1] was 11 nM; in assay [2], over 500 nM; in assay [3], 78 nM.
